In patent US20120094895A1 (MOSAMEDIX B V, published 2012):

Tests used:
integrin αvβ3 = molecular target: T1, integrin αvβ3 (UniProt P06756 31-1048; P05106 27-788, limits assumed); experiment: flow cytometry, fluorescein labeled protein on MCF-7 and THP-1 cells
T1 construct: whole, on cells; Endogenous on MCF-7 and THP-1 cells (human cell lines); also called integrin-receptor

integrin αvβ5 = molecular target: T2, integrin αvβ5 (UniProt P06756 31-1048; P18084 24-799, limits assumed); experiment: as above
T2 construct: whole, on cells; Endogenous on MCF-7 and THP-1 cells (human cell lines); also called integrin-receptor
T2 sequence (P06756 31-1048 limits assumed, chain 1 of 2): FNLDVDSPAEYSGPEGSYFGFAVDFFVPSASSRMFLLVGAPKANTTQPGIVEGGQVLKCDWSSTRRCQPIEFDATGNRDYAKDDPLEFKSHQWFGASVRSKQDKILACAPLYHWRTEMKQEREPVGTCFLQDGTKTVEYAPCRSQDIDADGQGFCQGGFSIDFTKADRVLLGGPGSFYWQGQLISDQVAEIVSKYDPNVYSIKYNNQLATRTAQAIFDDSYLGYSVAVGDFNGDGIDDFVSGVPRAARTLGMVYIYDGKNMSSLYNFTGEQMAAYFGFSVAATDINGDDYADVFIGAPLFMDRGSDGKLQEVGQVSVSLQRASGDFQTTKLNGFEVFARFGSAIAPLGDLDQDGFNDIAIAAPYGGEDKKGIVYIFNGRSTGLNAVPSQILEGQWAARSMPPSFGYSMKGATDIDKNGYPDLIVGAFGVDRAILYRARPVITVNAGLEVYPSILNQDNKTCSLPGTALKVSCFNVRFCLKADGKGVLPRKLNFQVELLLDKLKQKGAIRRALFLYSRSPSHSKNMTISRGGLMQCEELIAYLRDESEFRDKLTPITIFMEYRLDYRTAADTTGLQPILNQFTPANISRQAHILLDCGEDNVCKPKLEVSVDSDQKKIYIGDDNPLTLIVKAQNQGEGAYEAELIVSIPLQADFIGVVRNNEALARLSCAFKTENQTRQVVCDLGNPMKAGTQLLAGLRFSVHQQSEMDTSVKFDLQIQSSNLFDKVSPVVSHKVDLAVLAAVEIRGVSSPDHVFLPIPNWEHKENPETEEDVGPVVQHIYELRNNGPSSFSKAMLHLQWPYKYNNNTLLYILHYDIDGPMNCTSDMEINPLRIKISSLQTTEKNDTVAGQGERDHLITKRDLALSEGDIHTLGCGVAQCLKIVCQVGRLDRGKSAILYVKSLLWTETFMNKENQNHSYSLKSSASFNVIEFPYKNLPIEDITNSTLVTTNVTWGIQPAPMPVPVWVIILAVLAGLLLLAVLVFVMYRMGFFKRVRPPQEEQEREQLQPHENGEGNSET
T2 sequence (P18084 24-799 limits assumed, chain 2 of 2): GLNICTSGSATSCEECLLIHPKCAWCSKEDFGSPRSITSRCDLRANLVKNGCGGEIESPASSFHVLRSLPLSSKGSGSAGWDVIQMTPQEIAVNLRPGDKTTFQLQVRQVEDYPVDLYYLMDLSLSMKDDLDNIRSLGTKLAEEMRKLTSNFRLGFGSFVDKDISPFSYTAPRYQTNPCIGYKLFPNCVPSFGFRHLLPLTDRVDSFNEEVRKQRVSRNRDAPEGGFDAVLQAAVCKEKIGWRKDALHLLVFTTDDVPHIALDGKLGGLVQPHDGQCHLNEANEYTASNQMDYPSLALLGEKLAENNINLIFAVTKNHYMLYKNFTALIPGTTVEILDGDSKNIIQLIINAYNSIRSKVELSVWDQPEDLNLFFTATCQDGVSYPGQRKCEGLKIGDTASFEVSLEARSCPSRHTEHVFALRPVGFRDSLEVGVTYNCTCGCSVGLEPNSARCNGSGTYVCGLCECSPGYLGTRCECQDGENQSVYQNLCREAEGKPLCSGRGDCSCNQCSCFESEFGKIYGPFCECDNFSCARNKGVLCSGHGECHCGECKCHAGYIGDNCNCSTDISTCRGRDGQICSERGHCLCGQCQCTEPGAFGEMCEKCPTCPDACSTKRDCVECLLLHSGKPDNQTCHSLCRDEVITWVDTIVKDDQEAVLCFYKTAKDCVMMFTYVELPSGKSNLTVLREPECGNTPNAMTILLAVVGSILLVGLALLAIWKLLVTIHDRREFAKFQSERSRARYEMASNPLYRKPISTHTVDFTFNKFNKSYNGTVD

T1 sequence (P06756 31-1048 limits assumed, chain 1 of 2): as the sequence (P06756 31-1048 limits assumed, chain 1 of 2) above
T1 sequence (P05106 27-788 limits assumed, chain 2 of 2): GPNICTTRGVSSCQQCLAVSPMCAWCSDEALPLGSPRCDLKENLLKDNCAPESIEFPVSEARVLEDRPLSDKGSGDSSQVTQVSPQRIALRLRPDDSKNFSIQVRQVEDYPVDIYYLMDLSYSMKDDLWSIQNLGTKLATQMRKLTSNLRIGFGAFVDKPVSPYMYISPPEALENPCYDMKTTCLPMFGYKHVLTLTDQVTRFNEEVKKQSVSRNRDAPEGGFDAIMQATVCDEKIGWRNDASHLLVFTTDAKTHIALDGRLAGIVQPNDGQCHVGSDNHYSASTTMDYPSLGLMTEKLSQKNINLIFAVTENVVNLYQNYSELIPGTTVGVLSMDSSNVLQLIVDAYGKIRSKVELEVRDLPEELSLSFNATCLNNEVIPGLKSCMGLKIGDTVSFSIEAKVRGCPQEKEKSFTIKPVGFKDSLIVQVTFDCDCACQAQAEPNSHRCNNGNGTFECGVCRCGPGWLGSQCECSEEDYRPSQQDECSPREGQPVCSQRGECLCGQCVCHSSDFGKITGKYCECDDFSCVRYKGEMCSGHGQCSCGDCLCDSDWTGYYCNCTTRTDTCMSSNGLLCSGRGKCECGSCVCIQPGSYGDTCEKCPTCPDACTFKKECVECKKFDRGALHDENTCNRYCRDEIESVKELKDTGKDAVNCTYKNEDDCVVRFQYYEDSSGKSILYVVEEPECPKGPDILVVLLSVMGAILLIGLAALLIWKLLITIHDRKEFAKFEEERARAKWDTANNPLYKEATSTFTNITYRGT

- binding result (integrin αvβ3): binds
- binding result (integrin αvβ5): binds
B1: annexin A5-T7D variant (other)
chain: AQVLRGDVTDFPGFDERADAETLRKAMKGLGTDEESILTLLTSRSNAQRQEISAAFKTLFGRDLLDDLKSELTGKFEKLIVALMKPSRLYDAYELKHALKGAGTNEKVLTEIIASRTPEELRAIKQVYEEEYGSSLEDDVVGDTSGYYQRMLVVLLQANRDPDAGIDEAQVEQDAQALFQAGELKWGTDEEKFITIFGTRSVSHLRKVFDKYMTISGFQIEETIDRETSGNLEQLLLAVVKSIRSIPAYLAETLYYAMKGAGTDDHTLIRVMVSRSEIDLFNIRKEFRKNFATSLYSMIKGDTSGDYKKALLLLCGEDD
modifications: fluorescein (FITC) label, site not stated
notes: Made in E. coli and purified; also called T7D anxA5; RGD-anxA5
